Reference: publication PMC10120048

Target: Cytochrome bX
Assay: native MS; 5 µM purified CytbX in 0.2 M ammonium acetate pH 8.0 with lauryldimethylamine oxide at 2x critical micelle concentration; Q-Exactive UHMR; dimer of the protein with itself

stoichiometry N: 2
Substance: Cytochrome bX
